Results: US20210214460A1 (AstraZeneca / MedImmune, published 2021)

Columns and labels:
[1] = molecular target: T1, membrane-bound human BCMA (human, UniProt Q02223 1-184); assay: flow cytometry on NCI-H929 cells (endogenous BCMA), printed as apparent affinity
T1 construct: whole, on cells; also called huBCMA
T1 sequence (looked up): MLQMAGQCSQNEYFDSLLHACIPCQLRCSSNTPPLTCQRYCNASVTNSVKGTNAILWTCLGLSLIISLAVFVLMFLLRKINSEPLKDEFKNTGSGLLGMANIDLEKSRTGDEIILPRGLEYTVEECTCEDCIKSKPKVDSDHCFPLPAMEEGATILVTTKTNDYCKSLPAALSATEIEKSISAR
Description: (§1) Binding of 15B2GL, I09, L15, and J6M0 to membrane-bound human BCMA was evaluated using flow cytometry in multiple myeloma and plasma cell leukemia cell lines that endogenously express BCMA (NCI-H929 and MM.1S, respectively). Binding of 15B2GL, 109, L15 to membrane-bound human BCMA was also evaluated in Ad293 cells expressing human BCMA. Binding assays were performed by incubating the anti-BCMA antibodies with 200,000 cells for 30 minutes at 4° C. followed by two washes with PBS+2% FBS (FACS Buffer). A range of antibody concentrations were evaluated using a 12-point, 3-fold dilution series. Cells were then incubated with 5 ug/mL goat-anti human IgG-AF647 secondary antibodies (Thermo Fisher Scientific, Waltham, Mass.) at 4° C., followed by two washes in PBS+2% FBS. Cells were resuspended in 200 uL PBS+2% FBS+DAPI.
(§2) Fluorescence of live, single cells was measured using a BD Biosciences LSRII cytometer and BD FACSDiva™ software (BD Biosciences, San Jose, Calif.). Data were analyzed using FlowJo™ software (FlowJo, LLC, Ashland, Oreg.). Mean fluorescence intensity values were used to determine percentage bound and EC50 was determined using Prism™ software (GraphPad Software Inc, La Jolla, Calif.).

[2] = molecular target: T2, TACI stably expressed on Ad293 cells (Homo sapiens (Human), UniProt O14836 1-293); assay: FACS on Ad293 cells stably expressing TACI, Alexa Fluor 647 secondary antibody, raw MFI (geo mean)
T2 sequence: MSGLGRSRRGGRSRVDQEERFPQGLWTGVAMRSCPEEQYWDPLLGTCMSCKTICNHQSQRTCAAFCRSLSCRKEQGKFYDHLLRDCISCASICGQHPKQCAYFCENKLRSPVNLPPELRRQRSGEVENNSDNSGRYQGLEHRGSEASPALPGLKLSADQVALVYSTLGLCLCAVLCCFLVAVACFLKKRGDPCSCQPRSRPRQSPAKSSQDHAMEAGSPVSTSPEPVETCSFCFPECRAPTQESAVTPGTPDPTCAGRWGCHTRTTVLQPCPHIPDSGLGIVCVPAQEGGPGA
Description: (§3) Antibodies 4679, 756, and 15B2GL (as described below) were analyzed by FACS to evaluate binding of antibodies to human BCMA, cynomolgus monkey BCMA, TACI, and BAFF-R using recombinant forms of the receptors stably expressed on Ad293 cells. Binding assays were performed by incubating antibodies 4679, 756, and 15B2GL with 200,000 cells at 4° C. for 45 minutes followed by two washes with PBS+2% FBS. Cells were then incubated with Alexa-Fluor® 647-labeled secondary antibodies at 4° C., followed by two washes in PBS+2% FBS. Anti-BAFF-R, anti-TACI, and anti-human BCMA-APC labeled antibodies were added according to manufacturer's recommended dilution in control wells. Cells were resuspended in 200 uL PBS+2% FBS+DAPI and antibody binding to live cells was analyzed using a Becton Dickinson™ Biosciences LSRII cytometer.

[3] = molecular target: T1, membrane-bound human BCMA; assay: flow cytometry on MM.1S cells (endogenous BCMA), printed as apparent affinity
Description: as §1, §2

[4] = molecular target: T3, cynomolgus monkey BCMA stably expressed on Ad293 cells (cynomolgus monkey, UniProt A0A2K5UD97 1-183); assay: FACS on Ad293 cells stably expressing cynomolgus BCMA, Alexa Fluor 647 secondary antibody, raw MFI (geo mean)
T3 construct: whole, on cells; also called cynoBCMA; Cyno BCMA
T3 sequence (A0A2K5UD97 entry or part of it): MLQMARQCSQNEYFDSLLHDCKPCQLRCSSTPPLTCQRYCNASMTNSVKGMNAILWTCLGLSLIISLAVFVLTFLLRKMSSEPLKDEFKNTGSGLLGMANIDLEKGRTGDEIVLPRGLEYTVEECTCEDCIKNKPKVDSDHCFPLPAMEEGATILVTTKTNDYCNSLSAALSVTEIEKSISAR
Description: as §3

[5] = molecular target: T1, membrane-bound human BCMA; assay: flow cytometry on Ad293 cells expressing human BCMA, printed as apparent affinity
Description: as §1, §2

[6] = molecular target: T4, BAFF-R stably expressed on Ad293 cells (Homo sapiens (Human), UniProt Q96RJ3 1-184); assay: FACS on Ad293 cells stably expressing BAFF-R, Alexa Fluor 647 secondary antibody, raw MFI (geo mean)
T4 sequence: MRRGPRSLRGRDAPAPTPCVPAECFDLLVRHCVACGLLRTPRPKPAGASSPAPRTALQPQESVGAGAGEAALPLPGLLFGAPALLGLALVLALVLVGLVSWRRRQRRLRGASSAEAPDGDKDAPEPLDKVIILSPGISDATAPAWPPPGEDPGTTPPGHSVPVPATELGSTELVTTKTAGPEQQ
Description: as §3

[7] = molecular target: T1, membrane-bound human BCMA; assay: FACS on Ad293 cells stably expressing human BCMA, Alexa Fluor 647 secondary antibody, raw MFI (geo mean)
Description: as §3

[8] = molecular target: T5, monomeric human sBCMA (GenScript) (human, UniProt Q02223 1-54); assay: SPR (ProteOn XPR36), antibody captured by anti-Fc, sBCMA 100-6.25 nM as analyte
T5 construct: extracellular domain; also called monomeric BCMA; monomeric (soluble) BCMA
T5 sequence (looked up): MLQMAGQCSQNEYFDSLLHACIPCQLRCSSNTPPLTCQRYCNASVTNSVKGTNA
Description: The binding of 15B2GL monoclonal antibody and optimized clones I09, L15, P10, N22, and M02 (described in Example 1) was assessed using monomeric human sBCMA (GenScript, Piscataway, N.J.) using a ProteOn™ XPR36 instrument (Bio-Rad, Hercules, Calif.). The binding of J6M0 also was assessed for comparison. Standard amine coupling was used to immobilize 25 μg/ml anti-Fc polyclonal antibody (Jackson ImmunoResearch, West Grove, Pa.) prepared in 10 mM sodium acetate buffer (pH 4.5) to the surface of a ProteOn™ GLC biosensor chip (Bio-Rad, Hercules, Calif.) pre-activated with 20 mM EDAC (1-ethyl-3-(3-dimethylaminopropyl)carbodiimide hydrochloride) and 5 mM Sulfo-NHS (N-hydroxysulfosuccinimide) at a density of ˜200-600 resonance units (RU). 15B2GL, I09, L15, P10, N22, M02, and J6M0 were subsequently injected at a concentration of 1 μg/ml for capture by the immobilized anti-Fc polyclonal antibody. The sensorgram was recorded by flowing two-fold serial dilutions of sBCMA prepared in PBS (pH 7.4) with 0.005% (v/v) Tween®-20, ranging from 100-6.25 nM, over the captured surface for 150 seconds at 75 μL/minute with dissociation time of 600 seconds. ProteOn™ data analysis software was used to analyze the data.

B1: 15B2GL monoclonal antibody (antibody, V domains shown)
VH: EVQLVESGGGLVKPGGSLRLSCAASGFTFRSYSMNWVRQAPGKGLEWVSSISGSSNYIYYADSVKGRFTISRDNAKNSLYLQMNSLRAEDTAVYYCARGGNYYVEYFQYWGQGTLVTVSS
VL: EIVLTQSPGTLSLSPGERATLSCRASQYISSNYLAWYQQKPGQAPRLLIYGASNRATGIPDRFSGSGSGTDFTLTISRLEPEDFAVYYCQQYGSSPITFGQGTKLEIK
notes: Clone 15B2 was converted into human IgG1 and germlined at four residues (15B2GL); also called germlined 15B2
B1 was tested, and the EC50 [1] was 3.14 nM, the binding result [2] was “no binding (tested: 100 ug/mL)” and the EC50 [3] was 2.56 nM. For the same binder, the “EC50 (read off the curve)” value [4] was about 1 µg/mL, the EC50 [5] was 3.87 nM and the binding result [6] was “no binding (tested: 100 ug/mL)”. For the same binder, the “EC50 (read off the curve)” value [7] was about 0.6 µg/mL and the Kd [8] was 60.7 nM.
